These results are taken from patent US20210063414A1, “METHODS FOR PREVENTING AND/OR TREATING BONE LOSS CONDITIONS BY MODULATING IRISIN” (Dana-Farber Cancer Institute, Inc., priority 2018, published 2021).

For this experiment, the target named is T1, MLO-Y4 cell surface proteins (Mus musculus, UniProt O88492).
T1 construct: endogenous in cells; host or cells: MLO-Y4
T1 sequence (O88492 1-1403): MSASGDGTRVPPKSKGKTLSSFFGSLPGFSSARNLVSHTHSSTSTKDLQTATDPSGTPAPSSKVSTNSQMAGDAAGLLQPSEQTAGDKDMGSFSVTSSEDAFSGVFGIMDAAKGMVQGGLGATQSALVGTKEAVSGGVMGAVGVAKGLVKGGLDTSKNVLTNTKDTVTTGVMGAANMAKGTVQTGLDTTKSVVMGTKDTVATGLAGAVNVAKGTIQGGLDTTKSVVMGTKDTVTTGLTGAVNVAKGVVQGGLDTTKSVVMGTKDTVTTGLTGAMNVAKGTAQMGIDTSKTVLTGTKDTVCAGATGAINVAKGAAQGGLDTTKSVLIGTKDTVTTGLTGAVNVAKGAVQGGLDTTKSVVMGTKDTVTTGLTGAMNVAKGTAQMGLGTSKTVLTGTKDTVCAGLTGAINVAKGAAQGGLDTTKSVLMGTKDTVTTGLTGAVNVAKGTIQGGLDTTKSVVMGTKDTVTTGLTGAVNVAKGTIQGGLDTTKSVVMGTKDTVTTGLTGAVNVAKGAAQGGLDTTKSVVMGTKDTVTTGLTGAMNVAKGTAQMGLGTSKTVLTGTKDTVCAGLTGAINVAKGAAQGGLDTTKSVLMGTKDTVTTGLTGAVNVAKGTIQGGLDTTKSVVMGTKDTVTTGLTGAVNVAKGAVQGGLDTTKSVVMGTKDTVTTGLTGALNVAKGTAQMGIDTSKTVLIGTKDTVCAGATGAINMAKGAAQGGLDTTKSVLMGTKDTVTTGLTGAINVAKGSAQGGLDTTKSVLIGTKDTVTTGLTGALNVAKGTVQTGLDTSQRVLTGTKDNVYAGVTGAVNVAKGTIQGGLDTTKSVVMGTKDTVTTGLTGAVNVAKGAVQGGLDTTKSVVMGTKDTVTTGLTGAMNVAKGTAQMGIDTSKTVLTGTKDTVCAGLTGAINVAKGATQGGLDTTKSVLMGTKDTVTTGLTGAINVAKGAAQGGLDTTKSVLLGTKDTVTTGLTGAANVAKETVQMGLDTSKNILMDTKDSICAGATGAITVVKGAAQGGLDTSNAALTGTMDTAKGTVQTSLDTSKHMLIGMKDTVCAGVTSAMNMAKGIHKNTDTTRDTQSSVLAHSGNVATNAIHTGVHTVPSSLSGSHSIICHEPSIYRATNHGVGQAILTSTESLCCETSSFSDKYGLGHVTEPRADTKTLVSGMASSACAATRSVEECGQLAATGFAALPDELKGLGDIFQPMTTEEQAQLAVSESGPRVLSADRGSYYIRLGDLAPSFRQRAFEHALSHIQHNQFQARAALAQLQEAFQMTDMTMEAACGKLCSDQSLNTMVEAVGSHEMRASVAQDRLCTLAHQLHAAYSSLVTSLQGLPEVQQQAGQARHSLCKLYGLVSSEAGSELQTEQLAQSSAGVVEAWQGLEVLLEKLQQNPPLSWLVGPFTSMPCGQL
The experiment is described as follows: Crosslinking/co-immunoprecipitation/mass spectrometry (TMT quantitative proteomics) to identify irisin receptors. The experiment is classed as binding. To be noted: co-precipitated protein Plin4 (PLIN4_MOUSE). In a few lines: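 Mouse MLO-Y4 cells were switched to serum-free FreeStyle medium for 4 h, chilled, then exposed to 10 nM His-tagged irisin (or adipsin as control) for 20 min. Cells were crosslinked with 1.5 mM DTSSP (30 min, ice), and bound proteins were pulled down on Ni-NTA and eluted with 250 mM imidazole. Eluates were separated by SDS-PAGE, trypsin-digested in gel, TMT 6-plex labelled and quantified by MS3-based LC-MS/MS on an Orbitrap Fusion Lumos.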

B1: irisin: secreted cleaved form of FNDC5; recombinant human/mouse irisin with C-terminal his tag produced in HEK293 cells (protein)
chain: DSPSAPVNVTVRHLKANSAVVSWDVLEDEVVIGFAISQQKKDVRMLRFIQEVNTTTRSCALWDLEEDTEYIVHVQAISIQGQSPASEPVLFKTPREAEKMASKNKDEVTMKE
modifications: left off: small tags and cut ends
notes: secreted cleaved form of FNDC5; recombinant human/mouse irisin with C-terminal his tag produced in HEK293 cells
Take B1: the TMT signal-to-noise ratio was 18.9196 and the “irisin/adipsin TMT signal-to-noise ratio” value is recorded as 0.169.
